Results: patent US20210309702A1
Where two headings read alike, the source gives them in different places.

Key:
Assay in all cases: cell-based or functional assay
[1] = molecular target: superfolder GFP tagged VSV-G (VSV-G-sfGFP) (Vesicular Stomatitis Virus (Indiana strain)) (UniProt P03522)
[2] = molecular target: VSV-G fused with GFP11 at its C terminus (VSV-G-GFP11) (Vesicular Stomatitis Virus (Indiana strain)) (UniProt P03522)
[3] = molecular target: VSV-G fused with GFP11 at its C terminus (VSV-G-GFP11) (Vesicular Stomatitis Virus (Indiana strain)) (UniProt P03522); remark: listed apart in the source

Substance: Cre recombinase fused with GFP1-10 (Cre-GFP1-10) (from UniProt P06956 1-343)
- 293ColorSwitch cells switched to GFP [1]: 2.6%
- 293ColorSwitch cells switched to GFP [2]: 66.9%
- 293ColorSwitch cells switched to GFP [3]: > 80%
